{
  "source": "patent US20230302148A1",
  "about": "“PHARMACEUTICAL COMPOSITION COMPRISING LONG-ACTING CONJUGATE OF TRIPLE GLUCAGON/GLP-1/GIP RECEPTOR AGONIST” (HANMI PHARM. CO., LTD., priority 2020, published 2023)",
  "note": "Bridges are numbered along the chain shown (N, C = ends). Where no end group is shown, it is not given here. [ ]: non-standard residue; d: D form. The star is where a group is joined. Acetyl(2-(4-imidazolyl)) = O=C(Cc1c[nH]cn1)*; Aib = CC(C)(N)C(=O)O",
  "data": [
    {"target": "human GLP-1 receptor (human, UniProt P43220 24-463)", "assay": "cell-based or functional assay", "units": {"In vitro activity relative to native peptide (%) vs. GLP-1": "%"}, "values": [
      {"binder": "{Acetyl(2-(4-imidazolyl))}-[Aib]QGTFTSDYSKYLDEKRQKEFVNWLLAQKC (bridge 15-19)", "note": "[triple agonist of SEQ ID NO: 93]", "In vitro activity relative to native peptide (%) vs. GLP-1": 5.7},
      {"binder": "Y[Aib]QGTFTSDYSKALDEKAAKDFVNWLLDQHPSSGQPPPSC (bridge 16-20)", "note": "[triple agonist of SEQ ID NO: 102]", "In vitro activity relative to native peptide (%) vs. GLP-1": 23.3},
      {"binder": "{Acetyl(2-(4-imidazolyl))}-[Aib]QGTFTSDYSIAMDEIHQKDFVNWLLAQKC (bridge 15-19)", "note": "[triple agonist of SEQ ID NO: 92]", "In vitro activity relative to native peptide (%) vs. GLP-1": 0.8},
      {"binder": "Y[Aib]QGTFTSDYSKALDEKAAKEFVQWLLDQHPSSGQPPPSC (bridge 16-20)", "note": "[triple agonist of SEQ ID NO: 100]", "In vitro activity relative to native peptide (%) vs. GLP-1": 42.2},
      {"binder": "H[Aib]QGTFTSDCSKYLDERAAQDFVQWLLDGGPSSGAPPPS", "note": "[triple agonist of SEQ ID NO: 25]", "In vitro activity relative to native peptide (%) vs. GLP-1": 82.6},
      {"binder": "H[Aib]QGTFTSDVSKYLDGQAAQEFVAWLLAGGGPSSGAPPPSC", "note": "[triple agonist of SEQ ID NO: 10]", "In vitro activity relative to native peptide (%) vs. GLP-1": 46},
      {"binder": "[Acetyl(2-(4-imidazolyl))]GQGTFTSDLSKQMDEERAREFIEWLLAQKPSSGAPPPSHG", "note": "[triple agonist of SEQ ID NO: 17]", "In vitro activity relative to native peptide (%) vs. GLP-1": 0.2},
      {"binder": "Y[Aib]QGTFTSDYSKALDEKAAKEFVNWLLDQHPSSGQPPPSC (bridge 16-20)", "note": "[triple agonist of SEQ ID NO: 101]", "In vitro activity relative to native peptide (%) vs. GLP-1": 23.2},
      {"binder": "Y[Aib]QGTFTSDYSKCLDEKRAKEFVQWLLDHHPSSGQPPPS (bridge 16-20)", "note": "[triple agonist of SEQ ID NO: 22]", "In vitro activity relative to native peptide (%) vs. GLP-1": 20.1},
      {"binder": "Y[Aib]QGTFTSDYSKYLDECRAKEFVQWLKNGGPSSGAPPPS (bridge 16-20)", "note": "[triple agonist of SEQ ID NO: 24]", "In vitro activity relative to native peptide (%) vs. GLP-1": 41.2},
      {"binder": "Y[Aib]QGTFTSDYSKYLDECRAKEFVQWLLAQKGKKNDWKHNIT (bridge 16-20)", "note": "[triple agonist of SEQ ID NO: 23]", "In vitro activity relative to native peptide (%) vs. GLP-1": 4.01},
      {"binder": "[Acetyl(2-(4-imidazolyl))]GQGTFTSDLSKQMDSEAQQLFIEWLKNGGPSSGAPPPSHG", "note": "[triple agonist of SEQ ID NO: 16]", "In vitro activity relative to native peptide (%) vs. GLP-1": 2.1},
      {"binder": "[Acetyl(2-(4-imidazolyl))]GQGTFTSDYSIQLDEIAVRDFVEWLKNGGPSSGAPPPSHG", "note": "[triple agonist of SEQ ID NO: 14]", "In vitro activity relative to native peptide (%) vs. GLP-1": 28},
      {"binder": "[Acetyl(2-(4-imidazolyl))]GQGTFTSDLSKQMDSERAREFIEWLKNTGPSSGAPPPSHG", "note": "[triple agonist of SEQ ID NO: 18]", "In vitro activity relative to native peptide (%) vs. GLP-1": "< 0.1"},
      {"binder": "H[Aib]QGTFTSDVSSYLDGQAQKEFIAWLVKGC", "note": "[triple agonist of SEQ ID NO: 2]", "In vitro activity relative to native peptide (%) vs. GLP-1": 5.9}
    ]},
    {"target": "T1, human GIP receptor (human, UniProt P48546 22-466)", "T1 sequence (looked up)": "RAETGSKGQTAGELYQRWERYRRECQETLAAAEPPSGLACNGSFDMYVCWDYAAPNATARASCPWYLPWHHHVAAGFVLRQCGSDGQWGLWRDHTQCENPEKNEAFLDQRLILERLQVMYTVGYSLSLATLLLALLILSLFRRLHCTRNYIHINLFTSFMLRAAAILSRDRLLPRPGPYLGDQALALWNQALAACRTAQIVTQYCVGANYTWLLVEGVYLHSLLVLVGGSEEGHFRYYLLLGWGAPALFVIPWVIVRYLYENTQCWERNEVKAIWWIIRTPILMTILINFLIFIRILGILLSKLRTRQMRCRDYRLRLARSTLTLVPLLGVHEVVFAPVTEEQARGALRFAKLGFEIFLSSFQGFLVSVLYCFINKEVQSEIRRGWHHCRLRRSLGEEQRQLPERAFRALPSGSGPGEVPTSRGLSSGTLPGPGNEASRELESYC", "assay": "cell-based or functional assay", "units": {"In vitro activity relative to native peptide (%) vs. GIP": "%"}, "values": [
      {"binder": "{Acetyl(2-(4-imidazolyl))}-[Aib]QGTFTSDYSKYLDEKRQKEFVNWLLAQKC (bridge 15-19)", "note": "[triple agonist of SEQ ID NO: 93]", "In vitro activity relative to native peptide (%) vs. GIP": 0.7},
      {"binder": "Y[Aib]QGTFTSDYSKALDEKAAKDFVNWLLDQHPSSGQPPPSC (bridge 16-20)", "note": "[triple agonist of SEQ ID NO: 102]", "In vitro activity relative to native peptide (%) vs. GIP": 58},
      {"binder": "{Acetyl(2-(4-imidazolyl))}-[Aib]QGTFTSDYSIAMDEIHQKDFVNWLLAQKC (bridge 15-19)", "note": "[triple agonist of SEQ ID NO: 92]", "In vitro activity relative to native peptide (%) vs. GIP": 0.4},
      {"binder": "Y[Aib]QGTFTSDYSKALDEKAAKEFVQWLLDQHPSSGQPPPSC (bridge 16-20)", "note": "[triple agonist of SEQ ID NO: 100]", "In vitro activity relative to native peptide (%) vs. GIP": 118},
      {"binder": "H[Aib]QGTFTSDCSKYLDERAAQDFVQWLLDGGPSSGAPPPS", "note": "[triple agonist of SEQ ID NO: 25]", "In vitro activity relative to native peptide (%) vs. GIP": "< 0.1"},
      {"binder": "H[Aib]QGTFTSDVSKYLDGQAAQEFVAWLLAGGGPSSGAPPPSC", "note": "[triple agonist of SEQ ID NO: 10]", "In vitro activity relative to native peptide (%) vs. GIP": "< 0.1"},
      {"binder": "[Acetyl(2-(4-imidazolyl))]GQGTFTSDLSKQMDEERAREFIEWLLAQKPSSGAPPPSHG", "note": "[triple agonist of SEQ ID NO: 17]", "In vitro activity relative to native peptide (%) vs. GIP": "< 0.1"},
      {"binder": "Y[Aib]QGTFTSDYSKALDEKAAKEFVNWLLDQHPSSGQPPPSC (bridge 16-20)", "note": "[triple agonist of SEQ ID NO: 101]", "In vitro activity relative to native peptide (%) vs. GIP": 40.1},
      {"binder": "Y[Aib]QGTFTSDYSKCLDEKRAKEFVQWLLDHHPSSGQPPPS (bridge 16-20)", "note": "[triple agonist of SEQ ID NO: 22]", "In vitro activity relative to native peptide (%) vs. GIP": 59.7},
      {"binder": "Y[Aib]QGTFTSDYSKYLDECRAKEFVQWLKNGGPSSGAPPPS (bridge 16-20)", "note": "[triple agonist of SEQ ID NO: 24]", "In vitro activity relative to native peptide (%) vs. GIP": "< 0.1"},
      {"binder": "Y[Aib]QGTFTSDYSKYLDECRAKEFVQWLLAQKGKKNDWKHNIT (bridge 16-20)", "note": "[triple agonist of SEQ ID NO: 23]", "In vitro activity relative to native peptide (%) vs. GIP": "< 0.1"},
      {"binder": "[Acetyl(2-(4-imidazolyl))]GQGTFTSDLSKQMDSEAQQLFIEWLKNGGPSSGAPPPSHG", "note": "[triple agonist of SEQ ID NO: 16]", "In vitro activity relative to native peptide (%) vs. GIP": "< 0.1"},
      {"binder": "[Acetyl(2-(4-imidazolyl))]GQGTFTSDYSIQLDEIAVRDFVEWLKNGGPSSGAPPPSHG", "note": "[triple agonist of SEQ ID NO: 14]", "In vitro activity relative to native peptide (%) vs. GIP": "< 0.1"},
      {"binder": "[Acetyl(2-(4-imidazolyl))]GQGTFTSDLSKQMDSERAREFIEWLKNTGPSSGAPPPSHG", "note": "[triple agonist of SEQ ID NO: 18]", "In vitro activity relative to native peptide (%) vs. GIP": "< 0.1"},
      {"binder": "H[Aib]QGTFTSDVSSYLDGQAQKEFIAWLVKGC", "note": "[triple agonist of SEQ ID NO: 2]", "In vitro activity relative to native peptide (%) vs. GIP": "< 0.1"}
    ]},
    {"target": "human GCG receptor (human, UniProt P47871 26-477)", "sequence (P47871 26-477)": "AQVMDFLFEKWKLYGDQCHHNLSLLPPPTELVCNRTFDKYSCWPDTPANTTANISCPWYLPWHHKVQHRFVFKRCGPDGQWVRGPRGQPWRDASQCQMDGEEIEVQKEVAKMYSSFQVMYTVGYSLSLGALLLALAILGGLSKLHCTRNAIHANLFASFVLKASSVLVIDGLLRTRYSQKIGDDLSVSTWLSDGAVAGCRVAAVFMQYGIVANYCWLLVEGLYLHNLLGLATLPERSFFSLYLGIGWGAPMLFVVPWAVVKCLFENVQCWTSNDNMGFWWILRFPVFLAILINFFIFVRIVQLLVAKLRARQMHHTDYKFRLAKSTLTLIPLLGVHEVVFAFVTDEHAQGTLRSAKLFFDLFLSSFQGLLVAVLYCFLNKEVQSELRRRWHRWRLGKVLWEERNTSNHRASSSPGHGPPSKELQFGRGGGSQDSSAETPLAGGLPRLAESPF", "assay": "cell-based or functional assay", "units": {"In vitro activity relative to native peptide (%) vs. Glucagon": "%"}, "values": [
      {"binder": "{Acetyl(2-(4-imidazolyl))}-[Aib]QGTFTSDYSKYLDEKRQKEFVNWLLAQKC (bridge 15-19)", "note": "[triple agonist of SEQ ID NO: 93]", "In vitro activity relative to native peptide (%) vs. Glucagon": 0.3},
      {"binder": "Y[Aib]QGTFTSDYSKALDEKAAKDFVNWLLDQHPSSGQPPPSC (bridge 16-20)", "note": "[triple agonist of SEQ ID NO: 102]", "In vitro activity relative to native peptide (%) vs. Glucagon": 29.5},
      {"binder": "{Acetyl(2-(4-imidazolyl))}-[Aib]QGTFTSDYSIAMDEIHQKDFVNWLLAQKC (bridge 15-19)", "note": "[triple agonist of SEQ ID NO: 92]", "In vitro activity relative to native peptide (%) vs. Glucagon": "< 0.1"},
      {"binder": "Y[Aib]QGTFTSDYSKALDEKAAKEFVQWLLDQHPSSGQPPPSC (bridge 16-20)", "note": "[triple agonist of SEQ ID NO: 100]", "In vitro activity relative to native peptide (%) vs. Glucagon": 12.7},
      {"binder": "H[Aib]QGTFTSDCSKYLDERAAQDFVQWLLDGGPSSGAPPPS", "note": "[triple agonist of SEQ ID NO: 25]", "In vitro activity relative to native peptide (%) vs. Glucagon": 0.1},
      {"binder": "H[Aib]QGTFTSDVSKYLDGQAAQEFVAWLLAGGGPSSGAPPPSC", "note": "[triple agonist of SEQ ID NO: 10]", "In vitro activity relative to native peptide (%) vs. Glucagon": "< 0.1"},
      {"binder": "[Acetyl(2-(4-imidazolyl))]GQGTFTSDLSKQMDEERAREFIEWLLAQKPSSGAPPPSHG", "note": "[triple agonist of SEQ ID NO: 17]", "In vitro activity relative to native peptide (%) vs. Glucagon": "< 0.1"},
      {"binder": "Y[Aib]QGTFTSDYSKALDEKAAKEFVNWLLDQHPSSGQPPPSC (bridge 16-20)", "note": "[triple agonist of SEQ ID NO: 101]", "In vitro activity relative to native peptide (%) vs. Glucagon": 13.9},
      {"binder": "Y[Aib]QGTFTSDYSKCLDEKRAKEFVQWLLDHHPSSGQPPPS (bridge 16-20)", "note": "[triple agonist of SEQ ID NO: 22]", "In vitro activity relative to native peptide (%) vs. Glucagon": 140},
      {"binder": "Y[Aib]QGTFTSDYSKYLDECRAKEFVQWLKNGGPSSGAPPPS (bridge 16-20)", "note": "[triple agonist of SEQ ID NO: 24]", "In vitro activity relative to native peptide (%) vs. Glucagon": 9.3},
      {"binder": "Y[Aib]QGTFTSDYSKYLDECRAKEFVQWLLAQKGKKNDWKHNIT (bridge 16-20)", "note": "[triple agonist of SEQ ID NO: 23]", "In vitro activity relative to native peptide (%) vs. Glucagon": 9.3},
      {"binder": "[Acetyl(2-(4-imidazolyl))]GQGTFTSDLSKQMDSEAQQLFIEWLKNGGPSSGAPPPSHG", "note": "[triple agonist of SEQ ID NO: 16]", "In vitro activity relative to native peptide (%) vs. Glucagon": "< 0.1"},
      {"binder": "[Acetyl(2-(4-imidazolyl))]GQGTFTSDYSIQLDEIAVRDFVEWLKNGGPSSGAPPPSHG", "note": "[triple agonist of SEQ ID NO: 14]", "In vitro activity relative to native peptide (%) vs. Glucagon": "< 0.1"},
      {"binder": "[Acetyl(2-(4-imidazolyl))]GQGTFTSDLSKQMDSERAREFIEWLKNTGPSSGAPPPSHG", "note": "[triple agonist of SEQ ID NO: 18]", "In vitro activity relative to native peptide (%) vs. Glucagon": "< 0.1"},
      {"binder": "H[Aib]QGTFTSDVSSYLDGQAQKEFIAWLVKGC", "note": "[triple agonist of SEQ ID NO: 2]", "In vitro activity relative to native peptide (%) vs. Glucagon": "< 0.1"}
    ]}
  ]
}
